Laboratory results reported in paper PMC4918325, “Mto2 multisite phosphorylation inactivates non-spindle microtubule nucleation complexes during mitosis” (Nature Communications, 2015).

Biological target: T1, Mto1-SZZ (protein A-tagged Mto1) (Schizosaccharomyces pombe, UniProt O94488 1-1115)
T1 construct: Mto1, Schizosaccharomyces pombe; Bait of all IgG-bead pulldowns; also called SZZ-tagged Mto1; source: S. pombe, gene tagged by PCR-based methods, in cell extract
T1 sequence (looked up): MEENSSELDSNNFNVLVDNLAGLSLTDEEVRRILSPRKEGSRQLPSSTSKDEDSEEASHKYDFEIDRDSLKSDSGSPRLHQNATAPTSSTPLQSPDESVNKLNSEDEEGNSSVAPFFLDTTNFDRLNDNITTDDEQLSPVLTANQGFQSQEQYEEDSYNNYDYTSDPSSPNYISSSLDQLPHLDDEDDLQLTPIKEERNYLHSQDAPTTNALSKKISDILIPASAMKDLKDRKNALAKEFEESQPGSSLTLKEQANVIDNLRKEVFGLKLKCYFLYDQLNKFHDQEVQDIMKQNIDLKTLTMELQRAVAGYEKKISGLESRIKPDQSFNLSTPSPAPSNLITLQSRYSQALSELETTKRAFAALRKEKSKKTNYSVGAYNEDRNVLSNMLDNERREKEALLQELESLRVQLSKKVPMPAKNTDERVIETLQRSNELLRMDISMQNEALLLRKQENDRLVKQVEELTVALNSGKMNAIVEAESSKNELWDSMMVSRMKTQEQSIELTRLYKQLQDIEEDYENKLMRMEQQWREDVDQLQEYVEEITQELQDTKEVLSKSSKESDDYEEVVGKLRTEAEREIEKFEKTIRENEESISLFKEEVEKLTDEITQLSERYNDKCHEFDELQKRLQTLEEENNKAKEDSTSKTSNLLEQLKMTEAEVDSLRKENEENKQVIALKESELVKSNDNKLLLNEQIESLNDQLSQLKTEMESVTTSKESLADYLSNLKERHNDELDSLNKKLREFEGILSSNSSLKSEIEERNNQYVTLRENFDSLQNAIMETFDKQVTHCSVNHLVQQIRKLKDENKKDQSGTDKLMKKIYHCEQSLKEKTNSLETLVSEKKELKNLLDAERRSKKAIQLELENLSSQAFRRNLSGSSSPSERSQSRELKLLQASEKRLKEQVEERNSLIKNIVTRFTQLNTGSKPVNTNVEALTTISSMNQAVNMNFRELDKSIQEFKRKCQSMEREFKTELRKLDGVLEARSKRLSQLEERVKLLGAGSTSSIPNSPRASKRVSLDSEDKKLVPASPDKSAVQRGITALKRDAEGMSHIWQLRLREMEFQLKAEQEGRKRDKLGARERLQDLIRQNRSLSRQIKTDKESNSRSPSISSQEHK
Experiment: pull-down; IgG-coupled Dynabeads pull Mto1-SZZ from extracts of interphase (asynchronous) S. pombe cells (mto2+, mto2[6A], mto2[13A], mto2[17A], mto2[24A]); 90 min at 4 °C; lysis buffer 25 mM sodium phosphate pH 7.5, 100 mM KCl, 0.5 mM EDTA, 0.2% Triton X-100 with protease and phosphatase inhibitors; western blot
Conditions: partners not purified

B1: Gtb1 (S. pombe γ-tubulin) (natural protein, UniProt P25295 1-446, looked up)
chain: MGREIITLQAGQCGNQIGSQFWQQLCLEHGIGPDGTLESFATEGVDRKDVFFYQSDDTRYIPRAILIDLEPRVVNNILSDTYGSLYNPENILITKNGGGAGNNWANGYSHAERIFEDIMDMIDREADGSDSLEGFSLLHSIAGGTGSGLGSFLLERLNDRYPKKIIQTYSVFPNSQSVSDVVVQPYNSLLALKRLTLNADSVVVLDNAALAHIAADRLHTQNPTFHQQNQLVSTVMSASTTTLRYPGYMNNDLVSIIASLIPSPRCHFLLTSYTPFTNQQVEEAKAIRKTTVLDVMRRLLLPKNQMVSVNPSKKSCFISILDIIQGEADPADVHKSLLRIRERRYASFIPWGPASIQVALSKKSPYIKTNHRVSGLMLANHTSIASLFKRTLDQYDRLRKRNAFLEQYKKEAIFEDDLNEFDSSRDVVADLINEYEACEDPNYLSL
notes: γ-tubulin Gtb1, Schizosaccharomyces pombe; Detected by anti-γ-tubulin blot (GTU-88); also called read-out of the γ-tubulin complex (γ-TuC); source: endogenous, S. pombe cell extract
- fold change of γ-tubulin copurifying with Mto1-SZZ in mto2[6A] cells relative to wild-type cells: ~1.5 fold
- fold change of γ-tubulin copurifying with Mto1-SZZ in mto2[13A] cells relative to wild-type cells: ~1.5 fold
- fold change of γ-tubulin copurifying with Mto1-SZZ in mto2[17A] cells relative to wild-type cells: ~3 fold
